Measured values from the domain aggregation screens of Martell et al. (2025).

assay: soluble fraction after stress (log2 fold change); higher = more stays soluble; pooled small domains, quantitative proteomics; conditions: stress: 75 degC
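Also: 20 min heating vs room temperature control held 20 min.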

First: HMEKGWYKLGQDSYYVDDDGKIHKGWLELDGKKYYFDQEGKMVTGTVNIDGKDYTFNEKGELYVS
Second: HMEKIELKTVIPENLKKKRLDFALSELFPEHSRSRIQSWIKEGSVMVNSKNYRQRDLVDAGDVVEINTEQK
The “soluble fraction (log2)” value of the first is higher: no less than 1.04 for the first, 0.00949 for the second.

Compared with “HMEKIIGQIQINQRGNGYVIVPNVKDDIFVKRENLNSARQGDRVAVQLLSRPNQKPEGLVQEVLERGQ”, “HMEKILSYKALMNDAGKRIDQFLANNEKDISRTRIKSLILEGSLKLDNNIINDPSYKIKENDVFTLFIPEA” is lower in “soluble fraction (log2)” value: 0.637 for the first, -0.482 for the second.

“HMEKIRIQKYLSERGVMSRRAADSALAEGRIAVNGVTARPGDKIDPSSDTLTIDGRIVTTGTAP” and “HMEKKEWVIYITGAVKKPGVYRIPEGARVYQALEAAGGFTPEADRDAVNLAAMLQDGAHIKFPAVGEEV” are within 0.2 log units of each other in “soluble fraction (log2)” value: -0.0992 for the first, -0.148 for the second.

Going from “HMEKLNYSISNEEQGQRIDKYLSLMIEGKSRSFIQGLIDDKKVMANGKVIKSNYKLKNNDEITVEMPDPI” to “HMEKNILPDTSPEKQYEFATSFLKVGDYSTAERAFREFVINNSEHKLAGNAQYWYAETFRIRQ”, the “soluble fraction (log2)” value rises from -0.0366 to 0.261.

Compared with “HMEKSQIHLIHTRYVNPEQLVPILSMVIPAENIYVKSDSNLIIINGSSEMLREVESIVSKLDVPS”, “HMEKSSALRAKEAFMALYHDGKFKPGTKIPSESNMAELLGVSRETWRKALALLRGDGVLYSKHGSGTYLLE” is higher in “soluble fraction (log2)” value: -0.255 for the first, 0.254 for the second.

First: HMEKTKLPNLVDFTYRQAEALLQTHGLKVGKVERVPDVGQTVIKAKYKGKVISWGTELNKGEKIDLVIGKG
Second: HMELADLPSAQIREILAYVYRAPLEKRRDPSIHWLLIAAHKLTLPLLDRLDPADARALGERYGADYP
The “soluble fraction (log2)” value of the first is lower: -0.542 for the first, -0.00148 for the second.

First: HMELARLRPELDGNDIMRILGVPPGPVVGRAYTYLLELRINQGELGRERVTQLLLDWAAAEGISA
Second: HMELDMTFGEKIQKLRKESGLSQEELSYQLGVSRQAISKWERDSGYPETEKIVRMSKIFDVTLDYLLNE
The “soluble fraction (log2)” value of the first is lower: -2.76 for the first, -0.582 for the second.

First: HMELEDTYTKNLDASLARLDEYQASKGLTDEQVDEVINSLIADAENIIMGVFTPELIDSKLKAMNYDQDV
Second: HMELEFLTEKQKEALILAVNRGYYDVDSEVTLKRLADELGIARSTYGEHLKRAESEALKMVVSDLLRD
The “soluble fraction (log2)” value of the first is higher: 0.119 for the first, -0.556 for the second.

Compared with “HMELEIPGELIEAVRRLRDERQRMRLAGELAARQIQMHPERYTEASIDPVQTWDELRARILALA”, “HMELLSGTVEKVLTSGVLVKLPGGAIGFIPNSEMGTPRGTNHGKMFPAGTPLQVMVVEVNQDRGRITLSR” is lower in “soluble fraction (log2)” value: -0.485 for the first, -1.69 for the second.

First: HMELLTNPLTGREVEVLTLMALGQTNHEIARQLYLATGTVKAHTSSIYRKLDVANRTEAVARARQLGIL
Second: HMELLTYREMDVLNLLDQRLTNKEIAHALGISTETVRQHTVNLFRKLNVDNRRQAIVVARSLGYIGTPT
The “soluble fraction (log2)” value of the first is higher: -2.32 for the first, -2.97 for the second.

First: HMELNESVLKALYEKFREMSGSKGFITEDEVIIQLEKENPDITPDQQAEIFKYLYDTPLQIY
Second: HMELNFEGFYRFVRDELNVDLNAYKEKQLKRRIATVMKSSGALTLEDYSRLIANDEVIRNKFLDYITI
The “soluble fraction (log2)” value of the first is higher: -0.268 for the first, -3.37 for the second.

First: HMELPMGTQLPPERELAQQMQVSRAVVNGGLAELAQQGFLEVRPRQGTFVADYRRKGNLSTLIAIMEY
Second: HMELPPLQPGQPIDGRVEQQIRAGYYVVSVRGRGYEFQLPESARPGDLLRMVYLNDHPRLTFALLRIDNAN
The “soluble fraction (log2)” value of the first is higher: 0.257 for the first, -1.5 for the second.

First: HMELPVAVPHTELSPEALRGVVESFVLREGTDYGERDVPFEAKVAQVIRQLERGEARIMFDPVTQSVQIVT
Second: HMELRSPMPGLIIEIPVSKGDIIKKDQSLIILEAMKMENVLTSPINGKIADIKVNVQDTVEKNNLLITFEN
The “soluble fraction (log2)” value of the first is higher: 0.162 for the first, -0.0769 for the second.

“HMELSESLENYLVVIYEAHLRNEIARIKDMTASLSVKHTSAIDAIKKLEDLGIVNYEKRGFVKLTQSGIEK” and “HMELSPAELGERLKVARETANVTQDAGAKAAGIARTTLVAIEKGQRSARIDELQTLSRRYGVSVNSLLRR” are within 0.2 log units of each other in “soluble fraction (log2)” value: 0.00204 for the first, -0.154 for the second.

First: HMELSSRQAMIVDIVRKYEPITSEQIADKLNLTRSALRPDLAVLTMIGILEARPRVGYFFTGK
Second: HMELSTQERIQILLEILNQREIISFSQTLRKKEGKKGVVVTFLASLELAKDGYVTLVQNKSDQIYLRSN
The “soluble fraction (log2)” value of the first is lower: -1.91 for the first, -0.803 for the second.

Going from “HMELTDSLTENAKKLYSVLTTEPRHIDDLSEEAKLSSADTLAALTELELYSLVALSEGKHYYK” to “HMELTKAELEVMQILWKLKKAFVGDILDRMVEPKPAYNTVSTVVRLLEKKGVVGHESFGKSHRYYPL”, the “soluble fraction (log2)” value falls from -0.349 to -3.66.

Going from “HMELTVPDFTNMSLEDAINLAEKRDVRLEVTDSVFVKRLGRGFIYSQNPVAGSKVKKGRRILITINAIN” to “HMEMDPKELGRQVLAKRKEKGWSQEQLGKMAEISRNYVSQIERGEADSISIKIINRLAIALGVSPSDLGE”, the “soluble fraction (log2)” value rises from -3.63 to -0.292.

First: HMEMKHKNSQIFQAIKLKHMGFTPTQISEELRVSRTTINHWLTKAQLKDVKWEDIRENSADELVKLLFG
Second: HMEMNPLDIQNKAAELAQQWLQLPVGERQKQMAAVRTSNPNLHAMAKQKMEEMRSQAESQGRQSLSQP
The “soluble fraction (log2)” value of the first is lower: -1.33 for the first, 0.324 for the second.

First: HMEMTDKEEELMRIFWNHGPMFVREIVELYPEPRPHFNTLSTFVRNLEQKGFVSHEAVGGSFRYYAV
Second: HMEMTEDEITKQFDAMEREAKKEIDTGADKRAFMYGVSRTAAGMAGKNPKYARFITDKAKEVIENIAKYK
The “soluble fraction (log2)” value of the first is lower: -1.45 for the first, 0.298 for the second.

Compared with “HMENAEALLKKLSGVLSDYEYKMLMLYADGKTPRRIAQETGQSAKSVSNALFRARTKLKELYEDQ”, “HMENEIVMPVQINGKKRGDLTIARDADQASIQKAVLELDFVKAALNGGSPKKVIVVPQRIVNVV” is higher in “soluble fraction (log2)” value: -0.66 for the first, 0.338 for the second.

First: HMENFKVFMKAVQEVSPVPVRFDEISSGAKGYYSNTEKEIVIQNGMSESQTMKTGIHEVTHAMLHDRDF
Second: HMENFYGYEIINPEAKKFFITMGVNRYALEQWIKNKSEYGLIIVKSLYPFDPRLKLFLEKNRERIQNLIF
The “soluble fraction (log2)” value of the first is higher: 0.234 for the first, -0.526 for the second.

Going from “HMENKLIELTLSLDKSERLDKILTQELSHTRSVIQQWLKSGFVSVNGEIVKANYKAKDGDHVTIQIE” to “HMENKTGEVTVREDSALTLRQGPGTNYEKVGQAYRGDRVDVLEEQNGWYKVKTYDGKEAWASSSYISIV”, the “soluble fraction (log2)” value rises from -0.594 to 0.861.

Compared with “HMENMETSDIVARYSNMPGGIIEAFHEIVDRHGFLSQEAIIEAARGFGISVAEAYGVATFYSMFS”, “HMENMRLILASNLRRIREERRLSLNKVSELTGVSKSMLGQIERGESNPTLQTVWKIANGLRVSLTDLTEVP” is lower in “soluble fraction (log2)” value: -0.342 for the first, -2.66 for the second.

Compared with “HMENRILLSEDSLKHLAQDIPIDIIEKLSVLKDQIYHRYDDFNSIVQGLLGGENYLKYKDNILSFVEQ”, “HMENSMDTDWDVSGVDPSQYRLLFSTLGAIAGVKDVGLNPDGLKIIHTPEALPAIKQAFDANNLKLKMRTN” is lower in “soluble fraction (log2)” value: 0.424 for the first, -0.0945 for the second.

Going from “HMENSPLTHREAEVMRLMSEGKSNRAISEHLVISEKTVKNHVSSILQKMSVDDRTQAVLQAIKNGWVD” to “HMENTGFKDKKGNYIFDGDIVKDILGNIMKVEFKHFKWQLIPLNKTAFNMPMVDWLDLETETLNAEIIGN”, the “soluble fraction (log2)” value falls from 0.281 to -2.07.

Compared with “HMENTIESLLKAKGFNDIIVTVSDKQVDVVVSDKEIADNKRAQIEDVIKRKTGLEASAITITPA”, “HMENVLFVNVLSMTVRELAEMMKIPVNKIIQDSFSKGIMMNPNQRLEYDNFAELAKKYGITVKI” is lower in “soluble fraction (log2)” value: 0.127 for the first, -1.24 for the second.

First: HMENVMLRNFAIQATEAGVIKLLEDQRTFVWGSNNKKFMTVPFDEHPYSAMAAFFKTDEGLEIYKSIEKKF
Second: HMENYQIETFVKFIEESTGEDGVAFEDLFQNFTSRPAVITMFLALLEALRRNSIRIFQKEEFSQILIYPK
The “soluble fraction (log2)” value of the first is lower: -1.97 for the first, -0.0302 for the second.

Going from “HMENYTYKYATSANVNIREEPNTDSTILGKTLLNTEFQVVEDVDGWSKITTEAGYAYIKSEYLSDTE” to “HMEPDEQAVKALIAEIDKLSKEKLTLKHEKKLKELREIYDDFTEEEKKLVTNYDILVKMEKRMEVLKKQEG”, the “soluble fraction (log2)” value falls from 0.502 to 0.127.

Going from “HMEPDEYTVRQAFMKFDVGGEGRVPRDKLKALLETLGLELSAQQVRESEEQLDPEGTGFTSYGDFLMWWN” to “HMEPEVSNTYEKVLGMHHFSSTRSHQLHDLVRQANALELSLGEIESIAQSAKDGAQVISDIKHWMEPNRQ”, the “soluble fraction (log2)” value rises from -0.793 to 0.381.

First: HMEPEWVINTDGSNLNEILAIDEVDSRKTFSNDLQEVYRTFGIEAARQILVQEIDAVIESSGA
Second: HMEPFEQLLDRITSQTGKEPEEVVARMNELITERFDGNIRPEAALVIVAKRDNIQFMDLLDQLKQALL
The “soluble fraction (log2)” value of the first is higher: 0.082 for the first, -0.427 for the second.

“HMEPIAFDNMHNRGIKGTNDWTQYEITLPFSAEAKKIFVAGLLVGKGKAWFDKFEVFLDGKNITDVAQI” and “HMEPPPSYSALLKQISSGKVKELQLVPARREVIVTYPDGRSATVAILANDQQILRTAEAAGTPLLVK” are within 0.2 log units of each other in “soluble fraction (log2)” value: 0.0509 for the first, 0.189 for the second.

First: HMEPQLVKSFDVQTELTYDQFLSKYPESHTLGRLLVQPEPIPFEPYKNIPGITPEKLLALHAKHLEAR
Second: HMEPQSRTAYRLIEAMIVTHELPPGSRISEASLSAKLGIGRTPIREALQRLSFEGTVKIVPRSGAFVSEI
The “soluble fraction (log2)” value of the first is higher: 0.107 for the first, -2.78 for the second.

Compared with “HMEPREALDGLISERGETYASISRLLGRNSAYIQQFIKRGSPARLDQSDIALLALHFDVPVEMLGGKE”, “HMEPTIGTATVTSGSRLNMRSAKSTSASVVTRIPSGATVGVISYASDWSKVTYNGYTGYVSSPYISMNG” is lower in “soluble fraction (log2)” value: -0.588 for the first, -1.19 for the second.

“HMEPVIELGDRTLPIEITRHRRARRLTLRLAADGSAVRITLPHWARSAEATAFAHARRDWLAAQLAK” and “HMEPVTETVYAMDTVNIRAAADQTSEKIGSVTVGTALTRTGTDGDWSIIDYNGTTGYVKSEFLSNTAPEV” are within 0.2 log units of each other in “soluble fraction (log2)” value: 0.181 for the first, 0.253 for the second.

“HMEQLIIQEELSGKRLDQLVSLLFPSLTRAHAQKLIKEGAVLVNEKPRKPAYAVMTGELLTVELPEPE” and “HMEQNHYEVLGVSRDAIPEEIRKAYFEYARKLHPDANPDPGAAEQFMRIQTAYDVLSNPDRRHEYDGLLPP” are within 0.2 log units of each other in “soluble fraction (log2)” value: -0.167 for the first, 0.00418 for the second.

Compared with “HMEQRREEFILLAKELLEKELRKQNLEVHENLKPDVLNDVAKRLGMVSMDDLLAAVGDGKITPGTVVSKIV”, “HMEQVLNVAVRRGELIMSSAAEQTVRIYSSAGSMVWQGKVSASDVTVELPSGVYVVNGKKVV” is lower in “soluble fraction (log2)” value: -0.0625 for the first, -1.25 for the second.

Compared with “HMEQYFEDEELNDKFLEFLAMRKRVRKPVQTDRGMKMLLTSLHKLSGGDVGLMKQIIDQSLDNEWKKFVA”, “HMERDIATKHEVNRTVEAYSDIVKTLNLPSHKINLVEISFFNILKRSKPSPRENSILLGLAQKIKLHLEKK” is higher in “soluble fraction (log2)” value: -1.14 for the first, -0.737 for the second.

First: HMERLKYSQVVDLFKGEQVKSFVLDESNQLKMELQDGSTVSYKLRSFEQFYLDLSDTVKEQKESGIITDYD
Second: HMERPPHELLSDREYQTMVMIASGRTLTQIAEEMSLSPKTVSVYRARLLEKMKLKNNAELTHYALKHKLV
The “soluble fraction (log2)” value of the first is higher: -0.685 for the first, -1.89 for the second.
